In US11421029 (SICHUAN KELUN BIOTECH BIOPHARMACEUTICAL, dated 2022):
Each block holds one binder with its values, some of them ahead of it.

Legend:
[1] = molecular target: PDL-1 expressed on CHO-PDL-1-CD3L cells (UniProt Q9NZQ7 19-290, limits assumed); experiment: cell-based or functional assay
[2] = molecular target: T1, recombinant PDL-1-mFc protein (UniProt Q9NZQ7 19-238); experiment: ELISA: PDL-1-mFc coated, anti-human IgG-HRP detection
T1 construct: Obtained from Kelun-Biotech; only the UniProt entry is named; not shown: mFc part
Protocol: On the next day, the solution in the wells was discarded, and the wells were washed with a washing buffer (a phosphate buffer solution containing 0.05% Tween-20) for one time and the solution in the wells was discarded. PBS solution containing 2% BSA was added at 100 μl/well and the wells were blocked at […] for 2 hours. Then the solution in the well was discarded. […] The plate was incubated at 37° C. for 2 hours, then the solution in the wells was discarded and the wells were washed for three times. HRP conjugated goat anti-human IgG(H+L) was added into the plate at 100 μl/well and the plate was incubated at 37° C. for 1 hour. TMB solution was added to the wells at a concentration of 100 μl/well, and the reaction was carried out at room temperature for about 5 minutes. A stop solution at 100 μl/well was added to the plate, and then the plate was put into an ELISA plate reader reading OD450 absorbance values.

[3] = molecular target: T2, recombinant CD16a (Val) protein (UniProt P08637 17-208, limits assumed); experiment: ELISA: CD16a (Val) coated, antibody crosslinked with goat F(ab)2 anti-human kappa
T2 construct: Purchased from Sino Biological Inc. '(Val)' is printed without the position of the valine
Protocol: The recombinant CD16a (Val) protein (purchased from Sino Biological Inc.) was added into a 96-well enzyme labeled plate (purchased from Thermo) at 100 ng/well, and coating was carried out at 4° C. overnight. On the next day, the solution in the wells was discarded, the wells were washed with a washing buffer solution (a phosphate buffer solution containing 0.05% Tween-20) for one time and the solution in the wells was discarded. PBS solution containing 2% BSA was added at 100 μl/well for blocking the well at 25° C. for 2 hours, and then solution in the wells was discarded. […] The plate was incubated at 25° C. for 2 hours, then the solution in the wells was discarded and the well was washed with the washing buffer for three times. […] Then solution in the well was discarded and the well was washed with the washing buffer for five times. TMB solution was added to the well at a concentration of 100 μl/well, and the reaction was carried out at room temperature for about 30 minutes. Stop solution at 100 μl/well was added to the plate, and then the plate was put into an ELISA instrument to read OD450 absorbance values.

[4] = molecular target: T1, recombinant PDL-1-mFc protein; experiment: competitive ELISA: PD1-hFc coated, antibody premixed with PDL-1-mFc, anti-mouse IgG-HRP detection; competitor PD1-hFc
Protocol: The recombinant PD1-hFc protein (purchased from Sino Biological Inc.) was added into a 96-well enzyme labeled plate (purchased from Thermo) at 100 ng/well, and the coating was carried out at 4° C. overnight. On the next day, the solution in the wells was discarded and wells were washed one time with washing buffer (phosphate buffer solution containing 0.05% Tween-20) and the solution in the wells was discarded again. PBS solution containing 2% BSA was added at 100 μl/well for blocking the wells at 37° C. for 2 hours, and then the solution in the wells was discarded. […] The plate was incubated at 37° C. for 2 hours, then the solution in the wells was discarded and the well was washed with the washing buffer for three times. HRP conjugated goat anti-mouse IgG(H+L) (purchased from Thermo) solution was added into the plate at 100 μl/well and the plate was incubated at 37° C. for 1 hour. TMB solution was added to the wells, and the reaction was carried out at room temperature for about 5 minutes. Stop solution was added to the plate, and then the plate was put into an ELISA instrument in order to read an OD450 light absorbance value.

[5] = molecular target: T3, recombinant CTLA-4-His protein (UniProt P16410 36-161, limits assumed); experiment: ELISA: CTLA-4-His coated; reference AB02
T3 construct: Obtained from Kelun-Biotech; only the UniProt entry is named; also called CLTA-4-His; not shown: His tag
T3 sequence (looked up): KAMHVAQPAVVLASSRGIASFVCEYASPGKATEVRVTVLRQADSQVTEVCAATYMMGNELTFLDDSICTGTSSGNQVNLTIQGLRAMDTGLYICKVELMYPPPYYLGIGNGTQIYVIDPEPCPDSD
Protocol: (§1) Two batches of recombinant CLTA-4-His proteins (obtained from Kelun-Biotech, Uniport No.: P16410) were diluted with PBS respectively, the dilutes of CTLA-4-His at 100 μl/well were added into a 96-well ELISA plate, and coating was carried out at 4° C. overnight. On the next day, the solution in the wells was discarded, and wells were washed one time with washing buffer and the solution in the wells was discarded again. PBS solution containing 2% BSA was added at 100 μl/well for blocking the well at 37° C. for 2 hours, and then the solution in the well was discarded. […] The HRP conjugated goat anti-human IgG (H+L) solution was added into the plate and the plate was incubated at 37° C. for 1 hour. TMB solution was added to the well, and the reaction was carried out at room temperature for about 8 minutes. The stop solution was added to the plate, and then the plate was put into an ELISA plate reader to read OD450 absorbance values. Fitting curves were made by the means of the experimental data, as shown in FIG. 4A and FIG. 4B, and EC50 was calculated.

[6] = molecular target: T3, recombinant CTLA-4-His protein; experiment: ELISA: CTLA-4-His batch 1 coated, anti-human IgG-HRP detection
Protocol: as §1

[7] = molecular target: T3, recombinant CTLA-4-His protein; experiment: ELISA: CTLA-4-His batch 2 coated, anti-human IgG-HRP detection
Protocol: as §1

[8] = molecular target: T1, recombinant PDL-1-mFc protein; experiment: bridging ELISA for both antigens at once: PDL-1-mFc coated, antibody titrated, then 1.5 ug/ml CTLA-4-His, anti-His-HRP detection
Protocol: On the next day, the solution in the wells was discarded, wells were washed one time with washing buffer (phosphate buffer solution containing 0.05% Tween-20) and solution in the well was discarded again. PBS solution containing 2% BSA was added at 100 μl/well for blocking the wells at 37° C. for 2 hours, and then solution in the wells was discarded. The recombinant bispecific antibodies were diluted 5 folds serially at a start concentration of 100000 ng/mL to get 11 concentration gradients, and were added to the wells at 100 μl/well. The plate was incubated at 37° C. for 2 hours, then the solution in the wells was discarded and wells were washed with the washing buffer for three times. 1.5 ug/ml of the CTLA-4-His protein was added into the plate at 100 μl/well, and plate was incubated at 37° C. for 2 hours. Then the solution in the wells was discarded and wells were washed with the washing buffer for three times. HRP conjugated goat anti-his (purchased from BioLegend) was added into the plate and the plate was incubated at 37° C. for 1 hour. TMB solution was added to the wells, and the reaction was carried out at room temperature for about 5 minutes. Stop solution was added to the plate, and then the plate was put into an ELISA plate reader to read OD450 absorbance values.

PDL-1 expressed on CHO-PDL-1-CD3L cells, sequence (Q9NZQ7 19-290 limits assumed): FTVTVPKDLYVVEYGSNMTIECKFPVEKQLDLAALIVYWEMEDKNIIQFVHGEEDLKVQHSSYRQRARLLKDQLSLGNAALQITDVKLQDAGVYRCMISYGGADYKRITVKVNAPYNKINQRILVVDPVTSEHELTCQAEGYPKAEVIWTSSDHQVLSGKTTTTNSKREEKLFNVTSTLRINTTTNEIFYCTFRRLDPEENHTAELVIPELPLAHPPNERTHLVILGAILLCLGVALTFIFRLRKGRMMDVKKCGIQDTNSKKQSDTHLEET
T2 sequence (P08637 17-208 F176V limits assumed): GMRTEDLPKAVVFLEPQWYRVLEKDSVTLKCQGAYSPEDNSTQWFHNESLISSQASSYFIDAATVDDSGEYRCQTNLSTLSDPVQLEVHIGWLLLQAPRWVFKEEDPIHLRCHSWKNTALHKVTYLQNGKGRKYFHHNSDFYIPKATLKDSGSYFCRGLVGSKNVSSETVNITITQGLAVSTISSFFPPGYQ
T1 sequence (Q9NZQ7 19-238): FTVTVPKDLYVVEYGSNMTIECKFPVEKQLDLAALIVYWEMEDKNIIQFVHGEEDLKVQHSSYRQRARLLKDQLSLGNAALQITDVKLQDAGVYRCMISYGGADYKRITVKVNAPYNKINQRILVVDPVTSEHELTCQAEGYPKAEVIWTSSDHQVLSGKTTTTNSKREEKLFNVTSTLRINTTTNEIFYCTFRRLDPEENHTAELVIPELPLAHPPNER

EC50 of blocking PDL-1/PD1 in the luciferase (NFAT) reporter assay [1]: 1.68 nM | EC50 [2]: 0.0155 nM | EC50 [4]: 3.82 nM
B1: anti-PDL-1 parental antibody AB01 (antibody, human IgG1, kappa)
heavy: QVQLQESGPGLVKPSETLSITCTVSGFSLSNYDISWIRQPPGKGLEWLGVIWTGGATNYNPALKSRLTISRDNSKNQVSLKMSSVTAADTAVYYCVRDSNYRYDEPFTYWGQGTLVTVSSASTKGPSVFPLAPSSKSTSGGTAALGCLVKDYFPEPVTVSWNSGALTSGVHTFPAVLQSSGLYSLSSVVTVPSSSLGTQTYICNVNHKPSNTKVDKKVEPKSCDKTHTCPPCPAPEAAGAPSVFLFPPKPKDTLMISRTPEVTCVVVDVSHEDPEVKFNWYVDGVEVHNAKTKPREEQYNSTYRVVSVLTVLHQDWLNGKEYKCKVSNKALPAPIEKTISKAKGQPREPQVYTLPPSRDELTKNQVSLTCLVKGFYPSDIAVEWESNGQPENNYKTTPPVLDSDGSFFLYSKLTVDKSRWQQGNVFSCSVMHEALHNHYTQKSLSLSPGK
light: EIVLTQSPDTLSVTPKEKVTLTCRASQSIGTNIHWFQQKPGQSPKLLIKYASESISGVPSRFSGSGSGTDFTLTINSVEAEDAATYYCQQSNSWPYTFGQGTKLEIKRTVAAPSVFIFPPSDEQLKSGTASVVCLLNNFYPREAKVQWKVDNALQSGNSQESVTEQDSKDSTYSLSSTLTLSKADYEKHKVYACEVTHQGLSSPVTKSFNRGEC
notes: also called PDL-1 antibody AB01
binding result [3]: no binding (tested: 50 ug/ml, then 3-fold dilutions)

EC50 of blocking PDL-1/PD1 in the luciferase (NFAT) reporter assay [1]: 1.53 nM | EC50 as a multiple of that of AB02 [5]: 10 to 12 times | EC50 [2]: 0.0324 nM | EC50 [6]: 0.6 nM | EC50 [7]: 0.531 nM | binding result [3]: binds | EC50 [4]: 1.84 nM | EC50 [8]: 0.013 nM
B2: anti-PDL-1/CTLA-4 recombinant bispecific antibody AB04 (bispecific antibody, human IgG1, kappa)
heavy: not shown
light: B1 light
notes: The scFv is at the C-terminus of the heavy chain; also called AB4

EC50 of blocking PDL-1/PD1 in the luciferase (NFAT) reporter assay [1]: 1.82 nM | EC50 [2]: 0.0215 nM | EC50 [6]: 0.107 nM | EC50 [7]: 0.0862 nM | binding result [3]: binds | EC50 [4]: 2.6 nM | EC50 [8]: 0.0162 nM
B3: anti-PDL-1/CTLA-4 recombinant bispecific antibody AB03 (bispecific antibody, human IgG1, kappa)
heavy: not shown
light: B1 light
notes: The scFv is at the N-terminus of the heavy chain; also called AB003
